Assay results taken from PMC9177958, “Structures of nonsense-mediated mRNA decay factors UPF3B and UPF3A in complex with UPF2 reveal molecular basis for competitive binding and for neurodevelopmental disorder-causing mutation” (Nucleic Acids Research, 2022).
Positions count from the first letter of the chain named. In names and notes the source's numbering stands.

T1: UPF2L (120–1227) (UniProt Q9HAU5 120-1227)
T1 construct: UPF2, larger construct with wildtype activity, amino acids 120-1227; source: E. coli BL21 Rosetta2(DE3), purified (Ni-NTA, TEV, reverse IMAC, ion exchange)
T1 sequence (looked up): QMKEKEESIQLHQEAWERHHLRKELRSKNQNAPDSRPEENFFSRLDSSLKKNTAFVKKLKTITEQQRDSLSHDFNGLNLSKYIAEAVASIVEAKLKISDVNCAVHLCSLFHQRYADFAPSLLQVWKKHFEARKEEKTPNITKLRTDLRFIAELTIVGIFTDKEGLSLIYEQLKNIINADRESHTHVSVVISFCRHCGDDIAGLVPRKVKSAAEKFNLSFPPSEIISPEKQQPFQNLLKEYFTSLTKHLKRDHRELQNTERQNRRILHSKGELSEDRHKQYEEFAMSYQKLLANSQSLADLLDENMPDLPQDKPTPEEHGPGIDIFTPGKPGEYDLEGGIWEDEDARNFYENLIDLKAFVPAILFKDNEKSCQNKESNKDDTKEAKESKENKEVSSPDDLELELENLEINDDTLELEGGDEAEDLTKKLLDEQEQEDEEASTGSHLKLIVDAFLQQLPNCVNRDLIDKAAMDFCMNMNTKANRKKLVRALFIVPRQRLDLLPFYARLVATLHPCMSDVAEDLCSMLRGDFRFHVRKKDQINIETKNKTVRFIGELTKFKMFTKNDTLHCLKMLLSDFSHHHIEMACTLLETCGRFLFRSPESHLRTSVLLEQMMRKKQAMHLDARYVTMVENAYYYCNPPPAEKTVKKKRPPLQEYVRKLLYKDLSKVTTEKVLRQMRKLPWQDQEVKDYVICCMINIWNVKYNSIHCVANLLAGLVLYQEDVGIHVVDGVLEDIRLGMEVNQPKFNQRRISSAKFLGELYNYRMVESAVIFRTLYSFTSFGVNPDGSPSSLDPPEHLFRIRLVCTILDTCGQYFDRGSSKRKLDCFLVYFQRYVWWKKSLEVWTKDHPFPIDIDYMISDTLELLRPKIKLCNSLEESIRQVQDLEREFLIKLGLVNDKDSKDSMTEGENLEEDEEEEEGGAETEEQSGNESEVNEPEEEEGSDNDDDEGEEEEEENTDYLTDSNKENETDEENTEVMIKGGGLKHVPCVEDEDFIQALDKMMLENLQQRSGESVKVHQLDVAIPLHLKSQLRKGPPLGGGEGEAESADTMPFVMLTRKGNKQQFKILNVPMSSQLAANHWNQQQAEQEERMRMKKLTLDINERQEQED

T2: UPF3B-WT (human, UniProt Q9BZI7-2 1-470)
T2 sequence: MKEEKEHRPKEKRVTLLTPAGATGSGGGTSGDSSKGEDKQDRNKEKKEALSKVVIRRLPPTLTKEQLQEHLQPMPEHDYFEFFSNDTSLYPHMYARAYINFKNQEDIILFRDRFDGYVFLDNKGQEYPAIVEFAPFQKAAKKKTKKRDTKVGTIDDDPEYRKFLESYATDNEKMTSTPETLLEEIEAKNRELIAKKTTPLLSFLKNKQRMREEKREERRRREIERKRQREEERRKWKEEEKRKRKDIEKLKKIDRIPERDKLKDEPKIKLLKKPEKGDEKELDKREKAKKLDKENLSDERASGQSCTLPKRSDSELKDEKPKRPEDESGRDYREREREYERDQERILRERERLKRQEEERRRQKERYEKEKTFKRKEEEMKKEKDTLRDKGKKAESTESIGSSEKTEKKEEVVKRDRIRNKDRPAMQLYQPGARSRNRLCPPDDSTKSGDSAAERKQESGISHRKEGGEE

T3: UPF3A-WT (human, UniProt Q9H1J1 1-476)
T3 construct: UPF3A, human, full length; The cloning of UPF3A-WT is not described in the methods; also called full-length UPF3A-WT; source: insect cells (MultiBac), purified (Ni-NTA, TEV, reverse IMAC, ion exchange)
T3 sequence (looked up): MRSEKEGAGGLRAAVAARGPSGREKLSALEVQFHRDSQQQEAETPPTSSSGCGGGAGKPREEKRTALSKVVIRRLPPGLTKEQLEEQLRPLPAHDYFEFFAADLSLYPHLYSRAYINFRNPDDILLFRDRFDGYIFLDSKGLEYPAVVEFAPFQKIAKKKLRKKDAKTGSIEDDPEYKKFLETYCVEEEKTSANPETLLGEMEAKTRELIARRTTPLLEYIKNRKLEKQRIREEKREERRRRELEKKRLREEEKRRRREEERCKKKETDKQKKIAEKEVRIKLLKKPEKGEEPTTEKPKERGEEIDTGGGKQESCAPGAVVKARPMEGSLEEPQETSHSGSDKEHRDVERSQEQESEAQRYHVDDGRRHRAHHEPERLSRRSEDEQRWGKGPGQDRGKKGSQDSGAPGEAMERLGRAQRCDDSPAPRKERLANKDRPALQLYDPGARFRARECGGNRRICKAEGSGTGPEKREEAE

B1: UPF3B-WT (residues 1–470) (natural protein, human, UniProt Q9BZI7-2 1-470, looked up)
chain: T2 sequence
notes: UPF3B, human, isoform 2 (the predominant form found in cells), residues 1-470, printed length 470; also called full-length UPF3B; source: insect cells (MultiBac), purified (Ni-NTA, TEV, reverse IMAC, ion exchange)
B2: 24mer ssDNA (ssDNA)
DNA: CCCTGAGCTGACGCAGCACCTGGG
B3: biotinylated Avi-UPF2-MIF4GIII (domain or fragment, UniProt Q9HAU5 761-1054, looked up)
chain: EKTVKKKRPPLQEYVRKLLYKDLSKVTTEKVLRQMRKLPWQDQEVKDYVICCMINIWNVKYNSIHCVANLLAGLVLYQEDVGIHVVDGVLEDIRLGMEVNQPKFNQRRISSAKFLGELYNYRMVESAVIFRTLYSFTSFGVNPDGSPSSLDPPEHLFRIRLVCTILDTCGQYFDRGSSKRKLDCFLVYFQRYVWWKKSLEVWTKDHPFPIDIDYMISDTLELLRPKIKLCNSLEESIRQVQDLEREFLIKLGLVNDKDSKDSMTEGENLEEDEEEEEGGAETEEQSGNESEVNE
modifications: biotin on the Avi tag (BirA)
notes: UPF2, third middle-domain of eukaryotic initiation factor 4G (MIF4GIII), residues 761-1054; Avi tag added by site-directed mutagenesis to UPF2-MIF4GIII; also called immobilized UPF2-MIF4GIII; source: E. coli BL21 Rosetta2(DE3), purified (Ni-NTA, TEV, reverse IMAC, ion exchange); biotinylated with BirA, SEC
B4: UPF3A-58–206-Iso1 (domain or fragment, human, UniProt Q9H1J1 58-206, looked up)
chain: KPREEKRTALSKVVIRRLPPGLTKEQLEEQLRPLPAHDYFEFFAADLSLYPHLYSRAYINFRNPDDILLFRDRFDGYIFLDSKGLEYPAVVEFAPFQKIAKKKLRKKDAKTGSIEDDPEYKKFLETYCVEEEKTSANPETLLGEMEAKT
notes: Codon-optimized for E. coli, gene-synthesized; also called UPF3A-58–208 (as printed once); source: E. coli BL21 Rosetta2(DE3), purified (Ni-NTA, TEV, reverse IMAC, ion exchange)
B5: UPF3A-58–206-RRM* A101S-A102N-L104T (domain or fragment, human, UniProt Q9H1J1 58-206, looked up)
chain: B4 chain with A44S, A45N, L47T
notes: also called RRM* construct; source: E. coli BL21 Rosetta2(DE3), purified (Ni-NTA, TEV, reverse IMAC, ion exchange)
B6: UPF3A-58–206-NOPS* C185A-V186T-E187D (domain or fragment, human, UniProt Q9H1J1 58-206, looked up)
chain: B4 chain with C128A, V129T, E130D
notes: also called NOPS* construct; source: E. coli BL21 Rosetta2(DE3), purified (Ni-NTA, TEV, reverse IMAC, ion exchange)
B7: UPF3B-41–189 (domain or fragment, human, UniProt Q9BZI7 41-189, looked up)
chain: DRNKEKKEALSKVVIRRLPPTLTKEQLQEHLQPMPEHDYFEFFSNDTSLYPHMYARAYINFKNQEDIILFRDRFDGYVFLDNKGQEYPAIVEFAPFQKAAKKKTKKRDTKVGTIDDDPEYRKFLESYATDNEKMTSTPETLLEEIEAKN
notes: UPF3B, human, RRM-L and N-terminal part of the middle-domain (NOPS-L), residues 41-189; also called UPF3B-1–189 (as printed once); source: E. coli BL21 Rosetta2(DE3), purified (Ni-NTA, TEV, reverse IMAC, ion exchange)
B8: UPF3B-41–189 Y167A (domain or fragment, human, UniProt Q9BZI7 41-189, looked up)
chain: B7 chain with Y127A
notes: UPF3B, human, residues 41-189 with Y167A; source: E. coli BL21 Rosetta2(DE3), purified (Ni-NTA, TEV, reverse IMAC, ion exchange)
B9: UPF3B-41–189 Y160D (domain or fragment, human, UniProt Q9BZI7 41-189, looked up)
chain: B7 chain with Y120D
notes: UPF3B, human, residues 41-189 with the disease-causing (XLID) mutation Y160D; Y160D is a patient mutation and is also used as a phosphomimetic; also called UPF3B-Y160D; phosphomimetic/disease mutation; source: E. coli BL21 Rosetta2(DE3), purified (Ni-NTA, TEV, reverse IMAC, ion exchange)
B10: UPF3B-41–189 Y160A + Y167A (domain or fragment, human, UniProt Q9BZI7 41-189, looked up)
chain: B7 chain with Y120A, Y127A
notes: UPF3B, human, residues 41-189 with Y160A and Y167A; source: E. coli BL21 Rosetta2(DE3), purified (Ni-NTA, TEV, reverse IMAC, ion exchange)
B11: UPF3B-41–189 Y160A (domain or fragment, human, UniProt Q9BZI7 41-189, looked up)
chain: B7 chain with Y120A
notes: UPF3B, human, residues 41-189 with Y160A; source: E. coli BL21 Rosetta2(DE3), purified (Ni-NTA, TEV, reverse IMAC, ion exchange)
B12: UPF3B-41–189 F163A (domain or fragment, human, UniProt Q9BZI7 41-189, looked up)
chain: B7 chain with F123A
notes: UPF3B, human, residues 41-189 with F163A; it is named in the results; source: E. coli BL21 Rosetta2(DE3), purified (Ni-NTA, TEV, reverse IMAC, ion exchange)
B13: UPF3B-41–189 Y160D + Y167D (domain or fragment, human, UniProt Q9BZI7 41-189, looked up)
chain: B7 chain with Y120D, Y127D
notes: UPF3B, human, residues 41-189 with Y160D and Y167D; source: E. coli BL21 Rosetta2(DE3), purified (Ni-NTA, TEV, reverse IMAC, ion exchange)
B14: UPF3B-41–189 Y167D (domain or fragment, human, UniProt Q9BZI7 41-189, looked up)
chain: B7 chain with Y127D
notes: UPF3B, human, residues 41-189 with Y167D; also called Y167D (phosphomimetic); source: E. coli BL21 Rosetta2(DE3), purified (Ni-NTA, TEV, reverse IMAC, ion exchange)
B15: UPF3B-41–143 (domain or fragment, human, UniProt Q9BZI7 41-143, looked up)
chain: DRNKEKKEALSKVVIRRLPPTLTKEQLQEHLQPMPEHDYFEFFSNDTSLYPHMYARAYINFKNQEDIILFRDRFDGYVFLDNKGQEYPAIVEFAPFQKAAKKK
notes: UPF3B, human, RRM-L domain, residues 41-143; also called RRM-L alone; RRM-L only; source: E. coli BL21 Rosetta2(DE3), purified (Ni-NTA, TEV, reverse IMAC, ion exchange)
B16: 24mer dsDNA (dsDNA)
DNA 1: CCCTGAGCTGACGCAGCACCTGGG
DNA 2: CCCAGGTGCTGCGTCAGCTCAGGG

Legend:
UPF2L (120–1227) = biological target: T1, UPF2L (120–1227); assay: native gel or EMSA; 250 nM HEX-labelled ssRNA with 2 μM UPF3B-WT or UPF2L and increasing ratios of the other; on ice 1 h; 25 mM HEPES pH 7.45, 2 mM MgCl2, 150 mM NaCl, 0.5 mM TCEP; 4–20% Tris-Glycine native gel, Coomassie; conditions: both partners purified
UPF3B-WT = biological target: T2, UPF3B-WT; assay: fluorescence anisotropy; FA: 5 nM probe, 150 mM NaCl, 25 mM HEPES pH 7.45, 1 mM TCEP, 20 C; EMSA: 250 nM probe, 25 mM HEPES pH 7.45, 2 mM MgCl2, 150 mM NaCl, 0.5 mM TCEP, on ice; conditions: protein: recombinant, tags: 6xHis removed by TEV
UPF3A-WT = biological target: T3, UPF3A-WT; assay: SPR; 350 RU biotinylated Avi-UPF2-MIF4GIII immobilised on an SA chip (Biacore T200); UPF3B and UPF3A constructs injected; 15°C; 300 mM NaCl, 25 mM HEPES pH 7.4, 0.25 mM TCEP, 0.05% Tween-20; global fit, 1:1 binding model; conditions: both partners purified
[1] = biological target: B1; assay: as above; conditions: both partners purified
[2] = biological target: B3; assay: as above; conditions: both partners purified

Binder: B1
- binding result (UPF2L (120–1227)): binds

Binder: B2
- Kd (UPF3B-WT; label: 5' HEX, single strand): 190 nM

Binder: B3
- Kd (UPF3A-WT): 0.048 nM
- Kd [1]: 0.47 nM

Binder: B4
- Kd [2]: 0.22 nM

Binder: B5
- Kd [2]: 0.77 nM

Binder: B6
- Kd [2]: 2.6 nM

Binder: B7
- Kd [2]: 3.6 nM

Binder: B8
- Kd [2]: 3.3 nM

Binder: B9
- Kd [2]: 140 nM

Binder: B10
- Kd [2]: ~130 nM

Binder: B11
- Kd [2]: 88 nM

Binder: B12
- Kd [2]: 90 nM

Binder: B13
- Kd [2]: ~130 nM

Binder: B14
- Kd [2]: 7.4 nM

Binder: B15
- Kd [2]: 720 nM

Binder: B16
- Kd (UPF3B-WT; label: 5' HEX on strand 1, blunt): 61 nM
